From IntAct's records for PubMed 22634751

B1: Cyclin-dependent kinase inhibitor 1C (Homo sapiens), P49918 (parent)
chain: MSDASLRSTSTMERLVARGTFPVLVRTSACRSLFGPVDHEELSRELQARLAELNAEDQNRWDYDFQQDMPLRGPGRLQWTEVDSDSVPAFYRETVQVGRCRLLLAPRPVAVAVAVSPPLEPAAESLDGLEEAPEQLPSVPVPAPASTPPPVPVLAPAPAPAPAPVAAPVAAPVAVAVLAPAPAPAPAPAPAPAPVAAPAPAPAPAPAPAPAPAPAPDAAPQESAEQGANQGQRGQEPLADQLHSGISGRPAAGTAAASANGAAIKKLSGPLISDFFAKRKRSAPEKSSGDVPAPCPSPSAAPGVGSVEQTPRKRLR

Variants of: B1
Conditions: with pcna_human PCNA

Variant | effect of a mutation on the interaction
MSDASLRSTSTMERLVARGTFPVLVRTSACRSLFGPVDHEELSRELQARLAELNAEDQNRWDYDFQQDMPLRGPGRLQWTEVDSDSVPAFYRETVQVGRCRLLLAPRPVAVAVAVSPPLEPAAESLDGLEEAPEQLPSVPVPAPASTPPPVPVLAPAPAPAPAPVAAPVAAPVAVAVLAPAPAPAPAPAPAPAPVAAPAPAPAPAPAPAPAPAPAPDAAPQESAEQGANQGQRGQEPLADQLHSGISGRPAAGTAAASANGAAIKKLSGPLISDFVAKRKRSAPEKSSGDVPAPCPSPSAAPGVGSVEQTPRKRLR [F276V] | disrupting interaction
MSDASLRSTSTMERLVARGTFPVLVRTSACRSLFGPVDHEELSRELQARLAELNAEDQNRWDYDFQQDMPLRGPGRLQWTEVDSDSVPAFYRETVQVGRCRLLLAPRPVAVAVAVSPPLEPAAESLDGLEEAPEQLPSVPVPAPASTPPPVPVLAPAPAPAPAPVAAPVAAPVAVAVLAPAPAPAPAPAPAPAPVAAPAPAPAPAPAPAPAPAPAPDAAPQESAEQGANQGQRGQEPLADQLHSGISGRPAAGTAAASANGAAIKKLSGPLISDFFAERKRSAPEKSSGDVPAPCPSPSAAPGVGSVEQTPRKRLR [K278E] | disrupting interaction
